Laboratory results: US20240383974A1 (BETTA PHARMACEUTICALS, published 2024)
Substitutions are numbered along the chain they refer to.

B1: antibody m301 (antibody, V domains shown)
VH: QVQLKESGPGLVAPSQSLSITCTVSGFSLTTYGVTWVRQPPGKGLQWLGLIWGDGTTDYHSTFISRLSISKDKSKNQVFFKLNSLQTDDTATYYCASYYFAMHYWGQGTSVTVSS
VL: DIVMSQSPSSLAVSAGEKVTMNCKSSQSLLNSRTQKNYLAWYQQKPGQSPKLLIYWASTRESGVPDRFTGSGSGTDFTLTIISVQAEDLAVYYCKQSYNLWTFGGGTKLEIK
B2: antibody m202 (antibody, V domains shown)
VH: QVQLQQPGTELVKPGASVKLSCKASGYTFTSYWMHWVKQRPGQGLEWIGNINPSNGDTNYNEKFKSKATLTVDKSSSTAYMQLSSLTSDDSAVYYCARATYGSYGYFDVWGTGTAVTVSS
VL: DIVLTQSPASLAMSLGKRATISCRASESVTIIGTNLIQWFQQKPGQPPKLLIYHASNLETGVPARFSGSGSRTDFTLTIDPVEEDDVAIYYCLQSRQIPRTFGGGTKLEIK
B3: antibody m109 (antibody, V domains shown)
VH: EVKLVESGGGLVQPGGSLKLSCATSGFTFSDYYMYWVRQTPEKRLEWVAYISNGGGRTYYPDTVKGRFTISRDNAKNTLYLQMSRLKSEDRAIYYCARQKTNYGNYEEDYYAMGYWGQGTSVTVSS
VL: DIVLTQSPASLAVSLGQRATISCRASKSVSTSGYSYIHWYQQKPGQPPKLLIYLASNLESGVPARFSGSGSGTDFTLNIHPVEEEDAATYYCQHSRELPLTFGAGTKLDLK
B4: antibody m202-hu (antibody, V domains shown)
VH: QVQLVQSGAEVKKPGASVKVSCKASGYTFTSYWMHWVKQAPGQGLEWIGNINPSNGDTNYNEKFKSKATLTVDKSTSTAYMELRSLRSDDTAVYYCARATYGSYGYFDVWGQGTLVTVSS
VL: DIVLTQSPDSLAVSLGERATINCRASESVTIIGTNLIQWFQQKPGQPPKLLIYHASNLETGVPDRFSGSGSRTDFTLTISSLQAEDVAVYYCLQSRQIPRTFGGGTKVEIK
notes: Humanized m202
B5: antibody m301-hu (antibody, V domains shown)
VH: QVQLQESGPGLVKPSGTLSLTCAVSGFSLTTYGVTWVRQPPGKGLEWIGLIWGDGTTDYHSTFISRLTISKDKSKNQVSLKLSSVTAADTAVYYCASYYFAMHYWGQGTLVTVSS
VL: DIVMTQSPDSLAVSLGERATINCKSSQSLLNSRTQKNYLAWYQQKPGQSPKLLIYWASTRESGVPDRFSGSGSGTDFTLTISSLQAEDVAVYYCKQSYNLWTFGGGTKVEIK
notes: Humanized m301
B6: antibody m107-hu (antibody, V domains shown)
VH: QVQLVQSGAEVKRPGASVKVSCKASGYTFSAYTIHWVKQRPGQGLEWIGYINPSNDFAKYIQKFKDKVTITADKSTSTAYMELNSLRSEDTAVYYCARVDYYGGSYRWYLDVWGQGTTVTVSS
VL: DIVLTQSPATLSLSPGERATLSCRASQSISNNLHWYQQKPGEAPRLLIKYTSQSISGIPARFSGSGSGTDFTLTISSLEPEDFAVYFCQQSNSWPIFTFGQGTKLEIK
notes: Humanized m107
B7: antibody m109-hu (antibody, V domains shown)
VH: B3 VH with K3Q, K19R, T78S, K87R, S88A, R91T, I93V
VL: B3 VL with S22T, N78T, H80N, D109E, L110I
notes: Humanized m109
B8: antibody B (VHH)
VHH: QVQLVESGGGLVQPGGSLSLSCVASGFTFSSYAMRWVRQAPGKEPEWVAGINTGSEIVVYANSVRGRFAISRDNARDTLFLQMNSLKPEDTAVYYCATGLVSAEHDGIWGQGTQVTVSS
notes: Anti-PD-L1 alpaca nanobody
B9: antibody Bhu (VHH)
VHH: B8 VHH with L11V, S19R, V23A, E44G, P45L, A69T, A75S, F80Y, K87R, P88A
notes: Humanized anti-PD-L1 nanobody
B10: antibody A (VHH)
VHH: QVQLVESGGGLVQAGGSLRLSCAASGRSFSSSGMGWFRQAPGKDREFVATINSSGGDTYYRDSVEGRFTTSRDNAKNTMSLQMNDLKPEDTAVYYCAAKEGGGPSSIPAIYDYWGQGTQVTVSS
notes: Anti-PD-L1 alpaca nanobody
B11: antibody E (VHH)
VHH: B10 VHH with R61A, Y111F
notes: Anti-PD-L1 alpaca nanobody
B12: antibody Ahu (VHH)
VHH: B10 VHH with L11V, A14P, D44G, A75S, S80Y, D85S, K87R, P88A, Q119L
notes: Humanized anti-PD-L1 nanobody
B13: antibody D1hu (VHH)
VHH: EVQLVESGGGLVQPGGSLRLSCTASGRDFLTYGMGWFRQAPGKELEFVASINWSGSMTYYADSVKGRFTISRDNAKNTVYLQMNSLRAEDTAVYICAARRGAVTYASSNEYEHWGQGTQVTVSS
notes: Humanized anti-PD-L1 nanobody
B14: antibody D2hu (VHH)
VHH: B13 VHH with T23A, E44G, T78S
notes: Humanized anti-PD-L1 nanobody
B15: antibody D (VHH)
VHH: B13 VHH with P14A, G16D, L45R, R87K, A88P, E89G
notes: Anti-PD-L1 alpaca nanobody
B16: antibody Chu (VHH)
VHH: B13 VHH with T23A, E44G, L45R, R87K, Q119L
notes: Humanized anti-PD-L1 nanobody
B17: antibody C (VHH)
VHH: B13 VHH with L11S, P14T, T23V, L45R, R87K, A88P, E89G
notes: Anti-PD-L1 alpaca nanobody
B18: b202-L-Bhu (bispecific antibody)
heavy: not shown
light: DIVLTQSPDSLAVSLGERATINCRASESVTIIGTNLIQWFQQKPGQPPKLLIYHASNLETGVPDRFSGSGSRTDFTLTISSLQAEDVAVYYCLQSRQIPRTFGGGTKVEIKRTVAAPSVFIFPPSDEQLKSGTASVVCLLNNFYPREAKVQWKVDNALQSGNSQESVTEQDSKDSTYSLSSTLTLSKADYEKHKVYACEVTHQGLSSPVTKSFNRGECGGGGSGGGGSGGGGSGGGGSQVQLVESGGGVVQPGGSLRLSCAASGFTFSSYAMRWVRQAPGKGLEWVAGINTGSEIVVYANSVRGRFTISRDNSRDTLYLQMNSLRAEDTAVYYCATGLVSAEHDGIWGQGTQVTVSS
B19: b202-H-Bhu-D2hu (bispecific antibody)
heavy: not shown
light: DIVLTQSPDSLAVSLGERATINCRASESVTIIGTNLIQWFQQKPGQPPKLLIYHASNLETGVPDRFSGSGSRTDFTLTISSLQAEDVAVYYCLQSRQIPRTFGGGTKVEIKRTVAAPSVFIFPPSDEQLKSGTASVVCLLNNFYPREAKVQWKVDNALQSGNSQESVTEQDSKDSTYSLSSTLTLSKADYEKHKVYACEVTHQGLSSPVTKSFNRGEC
notes: Tandem architecture and constant regions as noted for b301-H-Bhu-D2hu
B20: b305-H-Bhu-D2hu (bispecific antibody)
heavy: not shown
light: DIQMTQSPSSLSASVGDRVTITCRASQEISGYLSWLQQKPGGAPKRLIYAASTLDSGVPSRFSGSRSGTDYTLTISSLQPEDFATYYCLQYASYPTCTFGGGTKVEIKRTVAAPSVFIFPPSDEQLKSGTASVVCLLNNFYPREAKVQWKVDNALQSGNSQESVTEQDSKDSTYSLSSTLTLSKADYEKHKVYACEVTHQGLSSPVTKSFNRGEC
notes: as for B19

target: T1, human transforming growth factor β1 (human, UniProt P01137 279-390); test: ELISA, plate-coated hTGF-β1
T1 construct: Coated on the ELISA plate at 100 ng/well; also called hTGF-β1; TGF-β
T1 sequence (P01137 279-390 limits assumed): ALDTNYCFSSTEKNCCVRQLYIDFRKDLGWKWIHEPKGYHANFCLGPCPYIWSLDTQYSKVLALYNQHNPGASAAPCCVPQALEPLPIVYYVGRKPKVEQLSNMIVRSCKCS

Row | Binder | EC50 [nM]
1 | B1 | < 1
2 | B2 | < 1
3 | B3 | < 1

target: T2, human PD-L1 (human, UniProt Q9NZQ7 19-290); test: FACS on MC38-hPD-L1 cells
T2 construct: whole, on cells; also called hPD-L1; PD-L1 antigen on MDA-MB-231 cells
T2 sequence (Q9NZQ7 19-290): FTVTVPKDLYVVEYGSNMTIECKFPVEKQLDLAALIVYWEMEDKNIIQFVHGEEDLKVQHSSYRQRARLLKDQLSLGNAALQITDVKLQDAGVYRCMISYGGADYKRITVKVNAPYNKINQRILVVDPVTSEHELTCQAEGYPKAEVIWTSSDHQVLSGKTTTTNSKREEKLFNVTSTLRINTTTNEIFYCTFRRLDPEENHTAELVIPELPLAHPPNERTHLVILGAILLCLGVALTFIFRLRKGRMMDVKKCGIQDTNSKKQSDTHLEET

Row | Binder | binding result
4 | B4 | no binding (tested: initial concentration 200 nM)
5 | B5 | no binding (tested: initial concentration 200 nM)

target: T3, GARP-TGF-β complex (293-GARP/TGFβ stably transfected cells) (UniProt Q14392 20-662; P01137 30-390); test: FACS on 293-GARP/TGFβ cells
T3 construct: whole, on cells; Complex of GARP and (latent) TGF-β on the cell surface; also called 293-GARP/TGFβ cell; 293F-GAPR/TGFβ/αvβ6 cells
T3 sequence (Q14392 20-662, chain 1 of 2): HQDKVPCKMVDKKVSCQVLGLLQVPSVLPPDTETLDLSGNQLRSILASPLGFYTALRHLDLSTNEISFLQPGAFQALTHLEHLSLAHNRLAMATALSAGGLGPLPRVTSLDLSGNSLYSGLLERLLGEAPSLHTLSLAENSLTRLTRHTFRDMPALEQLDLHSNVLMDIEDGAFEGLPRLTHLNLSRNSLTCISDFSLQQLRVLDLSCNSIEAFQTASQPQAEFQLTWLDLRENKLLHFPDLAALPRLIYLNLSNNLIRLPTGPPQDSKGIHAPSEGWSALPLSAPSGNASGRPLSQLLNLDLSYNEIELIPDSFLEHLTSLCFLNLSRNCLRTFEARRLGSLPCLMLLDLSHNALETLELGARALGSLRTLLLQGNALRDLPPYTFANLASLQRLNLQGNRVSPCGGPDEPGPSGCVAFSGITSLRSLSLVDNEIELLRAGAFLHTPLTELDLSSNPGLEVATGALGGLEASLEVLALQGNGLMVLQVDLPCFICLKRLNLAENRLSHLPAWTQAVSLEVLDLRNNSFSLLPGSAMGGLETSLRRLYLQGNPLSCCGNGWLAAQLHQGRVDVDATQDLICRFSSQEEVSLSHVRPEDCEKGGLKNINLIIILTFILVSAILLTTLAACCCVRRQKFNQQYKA
T3 sequence (P01137 30-390, chain 2 of 2): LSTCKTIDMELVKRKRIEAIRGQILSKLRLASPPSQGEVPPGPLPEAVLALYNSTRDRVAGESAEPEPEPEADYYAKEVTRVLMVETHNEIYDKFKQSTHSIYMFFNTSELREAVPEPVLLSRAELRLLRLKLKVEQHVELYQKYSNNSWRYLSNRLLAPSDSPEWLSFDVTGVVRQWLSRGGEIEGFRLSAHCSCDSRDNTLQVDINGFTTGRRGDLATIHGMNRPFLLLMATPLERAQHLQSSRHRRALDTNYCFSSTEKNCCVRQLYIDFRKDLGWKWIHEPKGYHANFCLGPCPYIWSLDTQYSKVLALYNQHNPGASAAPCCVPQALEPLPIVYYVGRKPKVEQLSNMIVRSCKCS

Row | Binder | EC50 [nM]
6 | B6 | 7.5
7 | B4 | 2.5
8 | B7 | > 5
9 | B5 | 4

target: PD-L1-Biotin (UniProt Q9NZQ7 19-238, limits assumed, biotin label (site not stated)); test: competitive FACS: blocks PD-L1-Biotin binding to 293T-PD-1 cells
Sequence (Q9NZQ7 19-238 limits assumed): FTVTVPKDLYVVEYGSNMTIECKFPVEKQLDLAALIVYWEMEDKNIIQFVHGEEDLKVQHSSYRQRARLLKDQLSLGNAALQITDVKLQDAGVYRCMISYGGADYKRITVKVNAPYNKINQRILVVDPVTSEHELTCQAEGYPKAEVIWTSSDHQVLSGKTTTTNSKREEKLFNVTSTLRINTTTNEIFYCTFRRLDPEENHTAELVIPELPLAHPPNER

Row | Binder | IC50 [nM]
10 | B8 | 2.08
11 | B9 | 3.4
12 | B10 | 1.02
13 | B11 | 2.54
14 | B12 | 4
15 | B13 | 2.6
16 | B14 | 12
17 | B15 | 2.1
18 | B16 | 1
19 | B17 | 1.68

target: T3, GARP-TGF-β complex (293-GARP/TGFβ …); test: FACS on 293-GARP/TGFβ cells; remark: another data set of the same source

Row | Binder | EC50 [nM]
20 | B18 | 1.6
21 | B19 | 1.5
22 | B20 | 4.4

target: T1, human transforming growth factor β1; test: ELISA, plate-coated hTGF-β1; remark: another data set of the same source

Row | Binder | EC50 [nM]
23 | B6 | 7.5
24 | B4 | < 2
25 | B7 | 0.73
26 | B5 | < 2

target: T2, human PD-L1; test: FACS on MDA-MB-231 cells (endogenous PD-L1)

Row | Binder | EC50 [nM]
27 | B8 | 0.031
28 | B10 | 0.089
29 | B11 | 0.053
30 | B15 | 0.039
31 | B17 | 0.042

target: T2, human PD-L1; test: competitive FACS: blocks human-CD80-mFc binding to 293T-PD-L1 cells

Row | Binder | IC50 [nM]
32 | B8 | 3.35
33 | B9 | ~1.7
34 | B10 | 3.95
35 | B11 | 2.98
36 | B12 | ~1.8
37 | B13 | ~1.5
38 | B15 | 4.76
39 | B16 | ~3.2
40 | B17 | 4.15

target: T3, GARP-TGF-β complex (293-GARP/TGFβ …); test: FACS on 293-GARP/TGFβ cells; remark: another data set of the same source

Row | Binder | EC50 [nM]
41 | B1 | 2.5
42 | B2 | 2.7
43 | B3 | > 5

target: T2, human PD-L1; test: FACS on PD-L1-expressing cells, similar method

Row | Binder | EC50 [nM]
44 | B9 | 0.18
45 | B12 | 0.051
46 | B13 | 0.18
47 | B14 | 0.29
